Here are results for one protein from FireProtDB (doi:10.1021/bi00179a018).

The conditions of the data set: Bacillus amyloliquefaciens, Thermal, DSC, Potassium acetate 50 mM, reversible: yes, whole UniProt chain shown; for unfolding free energy: 25 °C.

B1: Ribonuclease wild type, P00648 (protein)
chain: MMKMEGIALKKRLSWISVCLLVLVSAAGMLFSTAAKTETSSHKAHTEAQVINTFDGVADYLQTYHKLPDNYITKSEAQALGWVASKGNLADVAPGKSIGGDIFSNREGKLPGKSGRTWREADINYTSGFRNSDRILYSSDWLIYKTTDHYQTFTKIR
The Tm is the temperature at which the thermal transition is half complete. Consider B1, for which the midpoint of thermal melting (Tm) reads like this: (pH 2) 24 °C; (pH 2.5) 31.6 °C; (pH 3.5) 46.7 °C; (pH 4) 50.5 °C; (pH 4.5) 53 °C; (pH 5) 53.9 °C. Also, the “unfolding enthalpy (calorimetric)” value reads like this: (pH 2) 82.5 kcal/mol; (pH 2.5) 94.3 kcal/mol; (pH 3.5) 119 kcal/mol; (pH 4) 125 kcal/mol; (pH 4.5) 129 kcal/mol; (pH 5) 131 kcal/mol. In addition, the unfolding free energy runs as follows: (pH 3) 4.4 kcal/mol; (pH 3.5) 6.79 kcal/mol; (pH 4) 8.13 kcal/mol; (pH 4.5) 9.02 kcal/mol; (pH 5) 9.35 kcal/mol.
